The values below come from paper PMC2291563, “SAM Domain-Based Protein Oligomerization Observed by Live-Cell Fluorescence Fluctuation Spectroscopy” (PLoS ONE, 2008).

Data set [1] concerns the molecule itself. Briefly: photon counting histogram (1dPCH), constrained two-component fit; live yeast cells at high salt (NaCl); monomer brightness fixed, oligomer brightness and numbers freely varied; subunits estimated from a linear extrapolation of GFP brightness.
Data set [2] concerns the molecule itself. The experiment in a line: photon counting histogram (1dPCH), constrained two-component fit; live yeast cells treated with α-factor; monomer brightness fixed, oligomer brightness and numbers freely varied; subunits estimated from a linear extrapolation of GFP brightness.
Data set [3] concerns the molecule itself. The experiment in a line: photon counting histogram (1dPCH), constrained two-component fit; live yeast cells, cycling; monomer brightness fixed, oligomer brightness and numbers freely varied; subunits estimated from a linear extrapolation of GFP brightness.
The target in the next data set is T1, Ste50-mCherry (budding yeast (S288C background), UniProt P25344 1-346).
T1 construct: Ste50, SAM domain protein, budding yeast; tagged at the chromosomal locus; source: expressed from its chromosomal locus in live yeast cells (S288C background); not shown: mCherry, C-terminal, kept
T1 sequence (looked up): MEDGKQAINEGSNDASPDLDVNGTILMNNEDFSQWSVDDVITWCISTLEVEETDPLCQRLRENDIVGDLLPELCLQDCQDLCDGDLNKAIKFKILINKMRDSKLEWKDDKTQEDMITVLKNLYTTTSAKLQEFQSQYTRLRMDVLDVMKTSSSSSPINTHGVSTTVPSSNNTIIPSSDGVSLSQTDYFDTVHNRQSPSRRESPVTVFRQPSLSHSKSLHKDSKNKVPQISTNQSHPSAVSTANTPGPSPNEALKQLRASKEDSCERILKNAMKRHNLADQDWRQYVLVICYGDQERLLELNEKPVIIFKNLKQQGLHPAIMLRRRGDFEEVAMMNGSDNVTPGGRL
The experiment in a line: two-dimensional photon counting histogram (2dPCH); live yeast cells with Ste11-GFP and Ste50-mCherry, cytosolic pool; 50 µs bins; two-component fit; cycling cells, also after α-factor or NaCl. The conditions noted are these: partners not purified.

B1: Ste50-GFP (natural protein, budding yeast (S288C background), UniProt P25344 1-346, looked up)
chain: MEDGKQAINEGSNDASPDLDVNGTILMNNEDFSQWSVDDVITWCISTLEVEETDPLCQRLRENDIVGDLLPELCLQDCQDLCDGDLNKAIKFKILINKMRDSKLEWKDDKTQEDMITVLKNLYTTTSAKLQEFQSQYTRLRMDVLDVMKTSSSSSPINTHGVSTTVPSSNNTIIPSSDGVSLSQTDYFDTVHNRQSPSRRESPVTVFRQPSLSHSKSLHKDSKNKVPQISTNQSHPSAVSTANTPGPSPNEALKQLRASKEDSCERILKNAMKRHNLADQDWRQYVLVICYGDQERLLELNEKPVIIFKNLKQQGLHPAIMLRRRGDFEEVAMMNGSDNVTPGGRL
notes: Ste50, SAM domain protein, budding yeast; tagged at the chromosomal locus; source: expressed from its chromosomal locus in live yeast cells (S288C background); not shown: GFP, C-terminal, kept
In general, stoichiometry N refers to the number of molecules, sites or subunits per partner or assembly. B1: the entries for the “stoichiometry N” value in data set [1], in data set [2] and in data set [3] were 3 to 4, about 4 and 5 to 6, respectively.

B2: Ste11-GFP (natural protein, budding yeast (S288C background), UniProt P23561 1-717, looked up)
chain: MEQTQTAEGTDLLIGDEKTNDLPFVQLFLEEIGCTQYLDSFIQCNLVTEEEIKYLDKDILIALGVNKIGDRLKILRKSKSFQRDKRIEQVNRLKNLMEKVSSLSTATLSMNSELIPEKHCVIFILNDGSAKKVNVNGCFNADSIKKRLIRRLPHELLATNSNGEVTKMVQDYDVFVLDYTKNVLHLLYDVELVTICHANDRVEKNRLIFVSKDQTPSDKAISTSKKLYLRTLSALSQVGPSSSNLLAQNKGISHNNAEGKLRIDNTEKDRIRQIFNQRPPSEFISTNLAGYFPHTDMKRLQKTMRESFRHSARLSIAQRRPLSAESNNIGDILLKHSNAVDMALLQGLDQTRLSSKLDTTKIPKLAHKRPEDNDAISNQLELLSVESGEEEDHDFFGEDSDIVSLPTKIATPKNWLKGACIGSGSFGSVYLGMNAHTGELMAVKQVEIKNNNIGVPTDNNKQANSDENNEQEEQQEKIEDVGAVSHPKTNQNIHRKMVDALQHEMNLLKELHHENIVTYYGASQEGGNLNIFLEYVPGGSVSSMLNNYGPFEESLITNFTRQILIGVAYLHKKNIIHRDIKGANILIDIKGCVKITDFGISKKLSPLNKKQNKRASLQGSVFWMSPEVVKQTATTAKADIWSTGCVVIEMFTGKHPFPDFSQMQAIFKIGTNTTPEIPSWATSEGKNFLRKAFELDYQYRPSALELLQHPWLDAHII
notes: Ste11, MAP kinase kinase kinase with a SAM domain, budding yeast; tagged at the chromosomal locus; source: expressed from its chromosomal locus in live yeast cells (S288C background); not shown: GFP, C-terminal, kept
As to B2, the “stoichiometry N” value with Ste50-mCherry worked out at 2 Ste11 per Ste50.
